The chains are these.
B3: TRAIP CC (66–164 aa) (domain or fragment, human, UniProt Q9BWF2 66-164, looked up)
chain: LAQEEENVLDAEFLKNELDNVRAQLSQKDKEKRDSQVIIDTLRDTLEERNATVVSLQQALGKAEMLCSTLKKQMKYLEQQQDETKQAQEEARRLRSKMK
notes: The abstract prints 64–166 for this construct; Calculated mass with the C-terminal His tag is 12325 Da; also called TRAIP coiled-coil domain; TRAIP-1; source: E. coli BL21 (DE3), purified (Ni-NTA, SEC); not shown: His6, C-terminal, kept

Data set [1] concerns the molecule itself. Nature of the data set: SEC; each protein alone on Superdex 200 HR 10/30, 20 mM Tris-HCl pH 8.0, 150 mM NaCl; oligomeric state from the elution volume. On the technique in general: Size exclusion chromatography separates by hydrodynamic size, large species first.
In the data set “TRAIP CC (66–164 aa)” the target is B3. Briefly: SEC; purified proteins mixed in a molar ratio of approximately 1:1, pre-incubated 30 min at 4 °C, Superdex 200 HR 10/30, 20 mM Tris-HCl pH 8.0, 150 mM NaCl; fractions on SDS-PAGE. The following applies: both partners purified.
Data set [2] concerns the molecule itself. Nature of the data set: SEC-MALS; TRAIP CC alone on a size exclusion column HR 10/30, 20 mM Tris-HCl pH 8, 150 mM NaCl; three-angle light scattering and refractive index detectors (Wyatt mini-DAWN TREOS), ASTRA.

Here are results for 3 molecules from paper PMC8626312, “In vitro assembly complex formation of TRAIP CC and RAP 80 zinc finger motif revealed by our study” (Saudi Journal of Biological Sciences, 2021).

What is called stoichiometry N is the number of molecules, sites or subunits per partner or assembly.

B1: TRAIP RINGCC (1-157aa) (domain or fragment, human, UniProt Q9BWF2 1-157, looked up)
chain: MPIRALCTICSDFFDHSRDVAAIHCGHTFHLQCLIQWFETAPSRTCPQCRIQVGKRTIINKLFFDLAQEEENVLDAEFLKNELDNVRAQLSQKDKEKRDSQVIIDTLRDTLEERNATVVSLQQALGKAEMLCSTLKKQMKYLEQQQDETKQAQEEAR
notes: the methods name pET24a with a C-terminal His6; One sentence of the results prints 1–517; also called TRAIP-5; TRAIP RINGCC (1–517); source: E. coli BL21 (DE3), purified (Ni-NTA, SEC)
Regarding B1, the binding result in data set [1] was “binds”.

B2: RAP80 zinc finger (490–584 aa) (domain or fragment, human, UniProt Q96RL1 490-584, looked up)
chain: KEVAISTFSSSNQVSCPLCDQCFPPTKIERHAMYCNGLMEEDTVLTRRQKEAKTKSDSGTAAQTSLDIDKNEKCYLCKSLVPFREYQCHVDSCLQ
notes: RAP80 (receptor-associated protein 80), human, 719 aa, zinc finger motif, residues 490(K)-584(Q), 95 aa; the methods name pET24a with a C-terminal His6; also called RAP80 Zn finger motif; RAP80-1; source: E. coli BL21 (DE3), purified (Ni-NTA, SEC)
On to B2, for which the “stoichiometry N” value in data set [1] amounted to 3. Moreover, the binding result with TRAIP CC (66–164 aa) is recorded as “binds”.
As to B3, in data set [2], the “stoichiometry N” value turned out to be 3.
